The results in this text go back to the RNAGym collection of RNA variant scans (doi:10.7554/elife.90254).

B1: OR4K15 (parent)
chain: GUUAACGGUCAUAGGCCAUGGAAACUAGGAGCACCAUUUCGCUGCCAGUGAAGAAAUGAACAAAGAAAAUCUGGGCCAGGCAGGCAUCAAAAGAAAUAGUCUUGCGCUCAACCAGAAAGUCUGUAAUCAUUUUAAGGGUA

The variants in the series derive from B1. Briefly: self-cleavage, relative activity (ratio to wild type); higher = more cleavage; in vitro, sequencing; the parent is a self-cleaving ribozyme.
For the variant A56G U57A, the self-cleavage was 1.53.

Take A59C U100C: the self-cleavage is 1.22.

As to A56G A110G, the self-cleavage worked out at 0.07.

U57C A64G: the self-cleavage was determined as 0.81.

For the variant A56G U139C, the self-cleavage was 0.78.

On to A56G U139A, for which the self-cleavage stood at 1.41.

For the variant U57G A78U, the self-cleavage was 0.22.

On to A56G U97A, for which the self-cleavage was determined as 2.36.

U57C C121U: the self-cleavage stood at 2.46.

Turning to U57C C121A, the self-cleavage was 1.91.

As to A59G A116C, the self-cleavage was 0.07.

As to A59G A82G, the self-cleavage came out at 0.45.

Take A59G A82U: the self-cleavage was determined as 0.34.

As to A55G U72A, the self-cleavage came to 0.19.

For A55G U72C, the self-cleavage worked out at 0.28.

Consider A59C A140U, for which the self-cleavage was 1.46.

On to U57C A111U, for which the self-cleavage amounted to 0.08.

As for U57C A111G, the self-cleavage was determined as 0.01.

On to A56C A118G, for which the self-cleavage is 0.63.

On to A56G A118G, for which the self-cleavage is 1.19.

Turning to U57C A59G, the self-cleavage came out at 0.57.

U57C A135G: the self-cleavage is 1.34.

For A55G U103A, the self-cleavage was determined as 0.46.

With A55G U103C, the self-cleavage worked out at 1.06.

With A55G A135G, the self-cleavage turned out to be 1.57.

Regarding A59G A69G, the self-cleavage is 1.26.

As for A56U A114U, the self-cleavage was determined as 0.04.

On to A56U A114G, for which the self-cleavage amounted to 0.36.

With A55G C85U, the self-cleavage is 1.27.

As for A56G U108C, the self-cleavage came out at 0.01.

Turning to U57A G136A, the self-cleavage was found to be 1.37.

A59G A94G: the self-cleavage is 0.79.

On to U57C A114U, for which the self-cleavage was determined as 0.05.

For the variant U57C A114C, the self-cleavage came to 0.04.

For the variant A55G U127A, the self-cleavage turned out to be 1.65.

A55U A92U: the self-cleavage came to 2.65.

A55U A92G: the self-cleavage amounted to 1.36.

Regarding A55U A89U, the self-cleavage came to 0.56.

Turning to U57G A64G, the self-cleavage came out at 0.9.

In the case of A56G G83U, the self-cleavage came to 0.73.

As for U57C U102C, the self-cleavage was found to be 1.38.

With U57C U102G, the self-cleavage stood at 0.29.

For the variant U57C U102A, the self-cleavage stood at 0.48.

For A55U A82G, the self-cleavage came to 0.61.

For the variant A56U, the self-cleavage was determined as 1.54.

On to A56C, for which the self-cleavage stood at 1.33.

For the variant A56G, the self-cleavage was 0.72.

For the variant A55G C76A, the self-cleavage is 0.55.

As to G58U C107A, the self-cleavage is 0.03.

As to A59G A92G, the self-cleavage came out at 1.22.

With A56U A110U, the self-cleavage was determined as 1.

Take A55G U130A: the self-cleavage worked out at 0.52.

Regarding A56G A94U, the self-cleavage stood at 1.08.

For the variant A55G U131C, the self-cleavage was determined as 1.63.

As to A56U A59G, the self-cleavage was found to be 1.62.

For the variant A55U A98G, the self-cleavage was determined as 0.19.

Turning to A55U A98U, the self-cleavage stood at 2.38.

Consider A55U A64G, for which the self-cleavage worked out at 1.76.

For U57G U130C, the self-cleavage is 0.44.

A59G C85U: the self-cleavage came out at 0.51.

Turning to A56G A114G, the self-cleavage was determined as 0.31.

In the case of A56G A114U, the self-cleavage amounted to 0.08.

Consider A56G A114C, for which the self-cleavage worked out at 0.02.

In the case of U57A A90G, the self-cleavage is 0.76.

Regarding A59G G75A, the self-cleavage was 0.22.

In the case of G58U A64G, the self-cleavage was 1.2.

In the case of A59G G93A, the self-cleavage was found to be 1.61.

A59G U131C: the self-cleavage is 0.71.

With A59G U131A, the self-cleavage is 1.54.

With U57A A86G, the self-cleavage amounted to 1.09.

Regarding U57G A62G, the self-cleavage is 0.83.

On to U57C A68G, for which the self-cleavage was found to be 0.95.

On to A55U A67G, for which the self-cleavage is 1.12.

Take A55U A67U: the self-cleavage is 1.6.

Consider A59G A60G, for which the self-cleavage came to 0.59.

As for A59G A60U, the self-cleavage is 2.03.

Consider A59C A60G, for which the self-cleavage worked out at 0.56.

In the case of G58A A95G, the self-cleavage worked out at 1.51.

In the case of A56G A62U, the self-cleavage worked out at 2.29.

U57C U132C: the self-cleavage came to 0.52.

In the case of U57A G75A, the self-cleavage was 0.27.

In the case of A55G A129U, the self-cleavage turned out to be 1.43.

As for A55G C77U, the self-cleavage came to 1.41.

Turning to U57A U139A, the self-cleavage stood at 0.91.

Take U57A U132A: the self-cleavage turned out to be 0.7.

A56G A59G: the self-cleavage was found to be 1.2.

In the case of A56G A89U, the self-cleavage worked out at 1.09.

In the case of A56G A90G, the self-cleavage came to 1.03.

For A59G A62G, the self-cleavage worked out at 1.27.

A59G A62U: the self-cleavage stood at 1.32.

Turning to A56U A96C, the self-cleavage amounted to 0.35.

With A59U A117G, the self-cleavage was found to be 1.72.

As to A59U A117U, the self-cleavage worked out at 0.89.

For the variant G58A A117G, the self-cleavage amounted to 1.66.

For A59G U133A, the self-cleavage worked out at 1.28.

As to A59G U133C, the self-cleavage stood at 1.79.

Turning to A56G G115A, the self-cleavage was 0.11.

Take A56G G115U: the self-cleavage is 0.03.

U57C C105U: the self-cleavage stood at 0.15.

As to A56G U133C, the self-cleavage was found to be 1.43.

In the case of A59U A96C, the self-cleavage is 0.81.

Turning to A59U A96G, the self-cleavage was 1.87.

As to A55G G115A, the self-cleavage amounted to 0.14.

A55G G115U: the self-cleavage was 0.03.

For G58U A117G, the self-cleavage was found to be 1.89.

On to A55U U132C, for which the self-cleavage is 2.21.

Turning to A59G U122C, the self-cleavage is 1.1.

Take G58A A96G: the self-cleavage was found to be 1.84.

On to A56U U97C, for which the self-cleavage was determined as 1.16.

Regarding A55U U87C, the self-cleavage came to 1.64.

As to A55G U124C, the self-cleavage turned out to be 0.5.

Turning to A55G U124A, the self-cleavage worked out at 0.97.

For A56G G79A, the self-cleavage was 0.1.

Consider A56U A126G, for which the self-cleavage amounted to 1.34.

Regarding A56U A126U, the self-cleavage is 0.81.

As to A59G A126G, the self-cleavage was 0.81.

On to U57C C88U, for which the self-cleavage came out at 1.04.

For A59G A135U, the self-cleavage is 1.55.

Take A56G U102A: the self-cleavage is 0.97.

Turning to A56C A117U, the self-cleavage was found to be 0.96.

For the variant U57A A66G, the self-cleavage was 0.73.

In the case of A55U A111G, the self-cleavage amounted to 0.02.

For the variant A56C U133A, the self-cleavage stood at 1.4.

Turning to U57A A92G, the self-cleavage came out at 1.42.

On to A55U A125G, for which the self-cleavage is 0.35.

For A56G G74U, the self-cleavage was found to be 0.14.

On to A56G A117G, for which the self-cleavage amounted to 1.3.

In the case of G58A A60G, the self-cleavage was determined as 1.51.

With A56G A129G, the self-cleavage was 1.45.

Take A56G A129C: the self-cleavage turned out to be 1.03.

U57C A86U: the self-cleavage turned out to be 1.93.

In the case of U57A U133C, the self-cleavage was 1.08.

As for A59G U103A, the self-cleavage worked out at 0.62.

Regarding U57A A91G, the self-cleavage was determined as 0.54.

Take A56G U122C: the self-cleavage was 0.91.

Turning to U57A A98C, the self-cleavage is 1.24.

For the variant U57A A98G, the self-cleavage was found to be 0.42.

Take A56G C128U: the self-cleavage amounted to 0.54.

With A56G U100C, the self-cleavage turned out to be 2.18.

Take U57C A94G: the self-cleavage is 1.62.

On to U57G A129U, for which the self-cleavage turned out to be 1.78.

U57A C105U: the self-cleavage was 0.04.

Take A56C U108C: the self-cleavage was 0.01.

Consider A59G A118U, for which the self-cleavage was 0.74.

On to A59G A118G, for which the self-cleavage was 0.75.

As for A59G A114G, the self-cleavage amounted to 0.26.

Consider U57C A117C, for which the self-cleavage came to 0.7.

Regarding U57A U108C, the self-cleavage worked out at 0.02.

In the case of U57A U108A, the self-cleavage stood at 0.03.

In the case of U57C G106A, the self-cleavage turned out to be 0.

As to A59G A78G, the self-cleavage came to 0.26.

A56G U87A: the self-cleavage is 1.54.

As for A56G A126G, the self-cleavage worked out at 0.36.

As to A59G A89U, the self-cleavage was 0.98.

In the case of A55G G74U, the self-cleavage was 0.1.

As to A59G A129G, the self-cleavage amounted to 1.16.

In the case of U57C U100C, the self-cleavage is 1.83.

For the variant A55G U87C, the self-cleavage was determined as 0.64.

On to U57C U87C, for which the self-cleavage was determined as 0.63.

As to A56G C107A, the self-cleavage was determined as 0.02.

Consider A56G G106U, for which the self-cleavage came out at 0.01.

For the variant G58U A68G, the self-cleavage was 0.92.

Take G58A A67G: the self-cleavage is 0.36.

In the case of A55U A59U, the self-cleavage came out at 1.92.

In the case of U57G A126G, the self-cleavage was found to be 0.52.

On to A56G A96U, for which the self-cleavage was determined as 1.64.

Regarding A59C U122C, the self-cleavage came to 1.06.
